Reference: patent publication US20220348635A1, “COMPOSITIONS AND METHODS FOR NEUROLOGICAL DISEASES” (Coda Biotherapeutics, Inc., priority 2019, published 2022)
Positions count from the first letter of the chain named. In names and notes the source's numbering stands.

How the values were obtained:
[1] = Sensitivity of parental chimera versus wild type α7-nAChR, TC-6987
Source text: (§1) To generate LGICs that conduct anion current following exposure to non-native small molecule agonists of the human α7-nAChR, chimeric ligand gated ion channel (LGIC) receptors comprising the ligand binding domain derived from the human α7 nicotinic acetylcholine receptor (α7-nAChR) and the chloride-conducting ion pore domain derived from the human GlyR1α were genetically engineered.

[2] = Sensitivity of parental chimera versus wild type α7-nAChR, Facinicline/RG3487
Source text: as §1

[3] = Sensitivity of parental chimera versus wild type α7-nAChR, nicotine
Source text: as §1

[4] = Sensitivity of parental chimera versus wild type α7-nAChR, acetylcholine
Source text: as §1

[5] = Sensitivity of parental chimera versus wild type α7-nAChR, AZD-0328
Source text: as §1

[6] = Sensitivity of parental chimera versus wild type α7-nAChR, ABT-126
Source text: as §1

[7] = YFP quench plate reader assay, response to TC-6987; type: cell-based; settings: LX293T YFP reporter cells
Source text: (§2) FIGS. 1A-FIG. 1G show the heat maps of the percent quench of YFP fluorescence in the mutants of the engineered chimeric receptor SEQ ID NO:33 that comprise the indicated double amino acid substitutions following stimulation by various doses of either acetylcholine or the indicated non-native ligand. Ligand doses are written across the top of each chart. Numbers in the boxes indicate the absolute amount of quench observed. Dark blue=80% maximal quench of YFP reporter. Light blue=quench of 30-80%. White=10-30%. Orange=0-10% quench. Negative values represent non-responders that have a negative quench due to a stimulation artifact. SEQ ID NO:29 is a non-responding chimera used as a negative control. Abbreviations for non-native ligand names: abt: ABT-126; ach: acetylcholine; apn: APN-1125; azd: AZD-0328; brd: TC-5619; fac: RG3487; tc6: TC-6987.
(§3) Tables 2-8 below lists percent quench of YFP fluorescence following stimulation of the indicated engineered receptor by various doses of either acetylcholine or the non-native ligand.
(§4) To screen these mutant LGICs for those having novel response profiles to ligands, an anion reporter assay was developed to assess the function of channels in a high throughput format. In this assay, cells expressing a YFP reporter whose fluorescence is quenched in the presence of anion are transfected with DNA encoding the channel of interest. Upon exposure to ligand, channels that are activated will flux anion, resulting in a dose-dependent quench of the YFP that can be detected on a plate reader.
(§5) Lenti-X 293T cells (LX293T, Clontech) were maintained in DMEM containing 10% FBS and 1% penicillin/streptomycin (Invitrogen). […] Two days before assay, cells were split at a density of 20,000 cells/well in a 96-well tissue culture plate coated with poly-d lysine (Thermo Scientific). The next day, the cells were transiently transfected with 0.1 μg of DNA per well using standard Fugene protocol (Promega). On the day of assay, cells were washed 2 times in 1× extracellular solution (1×ECS: 140 mM NaCl, 5 mM KCl, 1 mM MgCl2, 2 mM CaCl2, 10 mM HEPES, 10 mM glucose, pH 7.2, mOsms 300). After the last wash, 100 μL of 1×ECS was added to the wells and the plate was incubated at 37° C. for 30 min. While incubating the plate, the drugs were diluted to a 2× concentration in 1×ECS-NaI (same components as 1×ECS except the 140 mM NaCl was replaced by 140 mM NaI). The plates were then read on a Flexstation3 (Molecular Devices). Each well, 8 wells at a time, of the plate is read for 2 min using a Flexstation3 (Molecular Devices) as follows: 1) a baseline YFP fluorescence is read for 17 sec, 2) 100 μL of ligand is added, and 3) the changes in YFP fluorescence are then measured every 1.3 sec for the remaining time.
(§6) FIG. 1 provides heat maps of the percent quench of YFP fluorescence following stimulation by various doses of either acetylcholine or the non-native ligand as indicated in the Figure. A positive fluorescence signal, as indicated by blue shaded cells, indicate that the engineered receptor is activated by the non-native ligand at that concentration. […] Table 12 lists the EC50 values for the indicated double mutants to acetylcholine (Ach) and TC-5619 as determined from the YFP fluorescence plate reader experiment.

[8] = YFP quench plate reader assay, response to TC-5619; type: cell-based; settings: LX293T YFP reporter cells
Source text: as §2, §3, §4, §5, §6

[9] = YFP quench plate reader assay, response to acetylcholine; type: cell-based; settings: LX293T YFP reporter cells
Source text: as §2, §3, §4, §5, §6

[10] = YFP quench plate reader assay, response to AZD-0328; type: cell-based; settings: LX293T YFP reporter cells
Source text: as §2, §3, §4, §5, §6

[11] = YFP quench plate reader assay, response to APN-1125; type: cell-based; settings: LX293T YFP reporter cells
Source text: as §2, §3, §4, §5, §6

[12] = High throughput electrophysiology in HEK293T cells, AZD-0328; type: cell-based
Experimental: To confirm the EC50s determined by plate reader as well as develop a better understanding of maximum current flow, the engineered receptors were subjected to high throughput electrophysiology system, as described below. For HEK293T studies, cDNAs encoding ion channels were cloned into pcDNA3.1 using standard recombination techniques. HEK293T cells from Clontech (Lenti-X™ 293T Cell Line) were cultured in DMEM supplemented with 10% FBS and 1% Pen/Strep to 40-50% confluence using standard cell culture protocols, transfected with ion channel plasmids at a concentration of 18 μg per 15 cm dish using Fugene 6, and grown for an additional 24 hours. Cells were then assayed on a electrophysiological system (IonFluxHT and/or Mercury, Fluxion Biosciences) in which dose-response relationships may be assessed through a microfluidics-based platform for establishing whole cell configurations. Ensemble plates were primed with extracellular buffer (140 mM NaCl, 5 mM KCl, 2 mM CaCl2), 1 mM MgCl2, 10 mM HEPES, and 10 mM glucose, pH 7.2 with NaOH, mOsm 310), intracellular buffer (145 mM CsCl, 2 mM CaCl2, 2 mM MgCl2, 10 mM HEPES, and 10 mM EGTA, pH 7.2 with CsOH, mOsm 305), as adapted from Lynagh and Lynch, and test compounds (stocks prepared fresh) diluted in extracellular buffer. Cells were then released from the plate with Accutase, centrifuged, resuspended in extracellular buffer, and loaded into Ensemble plates. Cells were then subjected to a standard protocol for priming, trapping, breaking, and establishing whole cell configuration, with cells held at −60 mV throughout the recording. After recording baseline, progressive doses of test compounds were applied using the IonFlux software to assess dose response relationships. Data were then analyzed off-line using custom Python scripts to convert data to .csv format, re-plot traces, and apply QC measurements to reject unstable recordings (i.e. thresholding based on access resistance and/or standard deviation in baseline, as well as artifact rejection). Peak currents were then calculated and population data were fit using a 4-parameter logistic equation as described by the Hill Equation. Currents were measured on an automated patch clamp system (Fluxion Biosciences) following 1 second addition of drug and the EC50 values calculated are tabulated below in Table 13.

[13] = High throughput electrophysiology in HEK293T cells, RG-3487; type: cell-based
Experimental: To confirm the EC50s determined by plate reader as well as develop a better understanding of maximum current flow, the engineered receptors were subjected to high throughput electrophysiology system, as described below. For HEK293T studies, cDNAs encoding ion channels were cloned into pcDNA3.1 using standard recombination techniques. HEK293T cells from Clontech (Lenti-X™ 293T Cell Line) were cultured in DMEM supplemented with 10% FBS and 1% Pen/Strep to 40-50% confluence using standard cell culture protocols, transfected with ion channel plasmids at a concentration of 18 μg per 15 cm dish using Fugene 6, and grown for an additional 24 hours. Cells were then assayed on a electrophysiological system (IonFluxHT and/or Mercury, Fluxion Biosciences) in which dose-response relationships may be assessed through a microfluidics-based platform for establishing whole cell configurations. […] Data were then analyzed off-line using custom Python scripts to convert data to .csv format, re-plot traces, and apply QC measurements to reject unstable recordings (i.e. thresholding based on access resistance and/or standard deviation in baseline, as well as artifact rejection). Peak currents were then calculated and population data were fit using a 4-parameter logistic equation as described by the Hill Equation. […]

[14] = YFP quench plate reader assay, response to RG3487; type: cell-based; settings: LX293T YFP reporter cells
Source text: as §2, §3, §4, §5, §6

[15] = YFP quench plate reader assay, response to ABT-126; type: cell-based; settings: LX293T YFP reporter cells
Source text: as §2, §3, §4, §5, §6

B1: SEQ ID NO: 33: parental CHRNA7/GLRA1 chimera: α7-nAChR ligand binding domain with GlyRα1 Cys-loop, fused to GlyRα1 ion pore domain (protein)
chain: MRCSPGGVWLALAASLLHVSLQGEFQRKLYKELVKNYNPLERPVANDSQPLTVYFSLSLLQIMDVDEKNQVLTTNIWLQMSWTDHYLQWNVSEYPGVKTVRFPDGQIWKPDILLYNSADERFDATFHTNVLVNSSGHCQYLPPGIFKSSCPMDLKNFPMDVQTCKLKFGSWSYGGWSLDLQMQEADISGYIPNGEWDLVGIPGKRSERFYECCKEPYPDVTFTVTMRRRMGYYLIQMYIPSLLIVILSWISFWINMDAAPARVGLGITTVLTMTTQSSGSRASLPKVSYVKAIDIWMAVCLLFVFSALLEYAAVNFVSRQHKELLRFRRKRRHHKSPMLNLFQEDEAGEGRFNFSAYGMGPACLQAKDGISVKGANNSNTTNPPPAPSKSPEEMRKLFIQRAKKIDKISRIGFPMAFLIFNMFYWIIYKIVRREDVHNQ
modifications: synthetic sequence of chimeric LGIC
With B1 the “sensitivity to TC-6987 compared to wild type α7-nAChR” value [1] was “approximately as sensitive”, the “type of agonist activity of TC-6987 on the receptor” value ([1]; similar to wild type) was “partial agonist activity” and the “fold more sensitive to Facinicline/RG3487 than wild type” value [2] was ~10 fold. The “fold less sensitive to nicotine than wild type” value [3] was ~2 fold, the “sensitivity to acetylcholine compared to wild type α7-nAChR” value [4] was “approximately as sensitive” and the “fold more sensitive to AZD-0328 than wild type” value [5] was “approximately 3 fold”. The “sensitivity to ABT-126 compared to wild type α7-nAChR” value [6] was “approximately as sensitive”.

B2: L131D, S172D in SEQ ID NO: 33: engineered chimeric α7-nAChR/GlyRα1 LGIC receptor: SEQ ID NO: 33 with substitutions L131D and S172D (protein)
chain: B1 chain with L131D, S172D
modifications: synthetic sequence of chimeric LGIC
With B2 the “percent quench of YFP fluorescence, 1 uM tc6” value ([7]; 1 uM TC-6987) was −18.24%, the “percent quench of YFP fluorescence, 10 uM tc6” value ([7]; 10 uM TC-6987) was −23.06% and the “percent quench of YFP fluorescence, 500 uM tc6” value ([7]; 500 uM TC-6987) was −19.3%. The “percent quench of YFP fluorescence, 1 nM brd” value ([8]; 1 nM TC-5619) was −1.24%, the “percent quench of YFP fluorescence, 3 nM brd” value ([8]; 3 nM TC-5619) was 0.25% and the “percent quench of YFP fluorescence, 10 nM brd” value ([8]; 10 nM TC-5619) was −2.57%. For the same molecule, the “percent quench of YFP fluorescence, 30 nM brd” value ([8]; 30 nM TC-5619) was 0.78%, the “percent quench of YFP fluorescence, 100 nM brd” value ([8]; 100 nM TC-5619) was 4.51% and the “percent quench of YFP fluorescence, 300 nM brd” value ([8]; 300 nM TC-5619) was 30.97%. The “percent quench of YFP fluorescence, 1 uM brd” value ([8]; 1 uM TC-5619) was 44.41%, the “percent quench of YFP fluorescence, 10 uM ach” value ([9]; 10 uM acetylcholine) was −12.91% and the “percent quench of YFP fluorescence, 100 uM ach” value ([9]; 100 uM acetylcholine) was −20.88%. The “percent quench of YFP fluorescence, 1 mM ach” value ([9]; 1 mM acetylcholine) was 79.85%, the “percent quench of YFP fluorescence, 3 mM ach” value ([9]; 3 mM acetylcholine) was 79.98% and the “percent quench of YFP fluorescence, 100 nM azd” value ([10]; 100 nM AZD-0328) was 51.44%. The “percent quench of YFP fluorescence, 300 nM azd” value ([10]; 300 nM AZD-0328) was 77.12%, the “percent quench of YFP fluorescence, 30 uM azd” value ([10]; 30 uM AZD-0328) was 79.26% and the “percent quench of YFP fluorescence, 100 nM apn” value ([11]; 100 nM APN-1125) was 71.72%. The “percent quench of YFP fluorescence, 1 uM apn” value ([11]; 1 uM APN-1125) was 77.26%, the “percent quench of YFP fluorescence, 30 uM apn” value ([11]; 30 uM APN-1125) was 77.5% and the “fold increased potency towards AZD-0328 compared to wild type receptor” value [12] was “at least 10 fold”. The “fold increased potency to RG-3487 compared to wild type receptor” value [13] was “at least 10 fold”, the “percent quench of YFP fluorescence, 30 nM fac” value ([14]; 30 nM RG3487) was 24.15% and the “percent quench of YFP fluorescence, 300 nM fac” value ([14]; 300 nM RG3487) was 80.17%. The “percent quench of YFP fluorescence, 10 uM fac” value ([14]; 10 uM RG3487) was 81.34%, the “percent quench of YFP fluorescence, 30 uM fac” value ([14]; 30 uM RG3487) was 79.9% and the “percent quench of YFP fluorescence, 50 nM abt” value ([15]; 50 nM ABT-126) was −3.19%. The “percent quench of YFP fluorescence, 100 nM abt” value ([15]; 100 nM ABT-126) was 7.58%, the “percent quench of YFP fluorescence, 300 nM abt” value ([15]; 300 nM ABT-126) was −1.65% and the “percent quench of YFP fluorescence, 1 uM abt” value ([15]; 1 uM ABT-126) was 31.29%.
